Experiments:
cyno CLDN6 VLP = assay: Biacore T200 SPR affinity to cyno CLDN6 VLP; assay type: binding, cynomolgus; conditions: cyno CLDN6, 25 degree C, pH 7.4
Experimental: (§1) The binding affinity of the anti-CLDN6/Dual-Fab tri-specific antibody against human and cynomolgus (cyno) CLDN6 VLP (virus-like particle) at pH 7.4 was determined at 25 degree C. using Biacore T200 instrument (GE Healthcare). Anti-human CD81 (BD Pharmingen) antibody was immobilized onto all flow cells of a C1 sensor chip using amine coupling kit (GE Healthcare). Human and cyno CLDN6 VLP were captured onto the sensor surface by the anti-human CD81 antibody. Each VLP was 5-fold dilution by buffer (20 mM NaPhosphate, 150 mM NaCl, 0.1 mg/mL BSA, 0.005% NaN3, pH 7.4). Tested antibody was prepared in buffer (20 mM NaPhosphate, 150 mM NaCl, 0.1 mg/mL BSA, 0.005% NaN3, pH 7.4). Anti-CLDN6/Dual-Fab tri-specific antibody was injected at 50 and 200 nM, followed by dissociation. Sensor surface was regenerated each cycle with 0.1% SDS and 100 mM H3PO4. […] Binding affinities were determined by processing and fitting the data to 1:1 binding model using Biacore T200 Evaluation software, version 2.0 (GE Healthcare).

CLDN6-LLC1 = CLDN6-LLC1 syngenic model, CS4135 single agent; assay type: in vivo, hCD137 KI/hCD3Tg mice
Experimental: In this test, lung cancer cell line LLC1 forced to express claudin 6 (CLDN6) (CLDN6-LLC1) and hCD137 KI/hCD3Tg mice (described in the above-mentioned Example 7) were used. The CLDN6-LLC1 cell line was transplanted subcutaneously to the right flank of the mice, and the mice were divided into groups 7 days after transplantation. Individuals whose tumor volume reached 262 to 353 mm^3 were divided into groups. The vehicle and CS4135 were administered into the mouse tail vein 8 days after transplantation. PBS containing 0.05% Tween-20 was used as the vehicle.
Tumor volume was measured 7, 10, and 14 days after transplantation, and the average tumor volume was indicated for each group. The tumor volume was calculated by the following equation: […]
(§2) Tumor Growth Inhibition (TGI) was calculated by the following equation: […]
The resected tumor tissue was weighed, and then a lymphocyte fraction was isolated. The lymphocyte fraction obtained by tissue disruption using a Tumor Dissociation Kit, mouse (Miltenyi Biotec) and then by use of a cell strainer was used. The obtained tumor-derived lymphocyte fraction was subjected to flow cytometry (FCM) analysis.
FCM was used to analyze the number of tumor-derived T cells. The number of CD8-positive T cells per tumor weight was calculated using the tumor weight value and the number of CD8-positive T cells according to FCM. […]

human CLDN6 VLP = molecular target: T1, human CLDN6 VLP (Homo sapiens, UniProt P56747); assay: Biacore T200 SPR affinity to human CLDN6 VLP; assay type: binding; conditions: human CLDN6, 25 degree C, pH 7.4
T1 sequence (P56747 1-220): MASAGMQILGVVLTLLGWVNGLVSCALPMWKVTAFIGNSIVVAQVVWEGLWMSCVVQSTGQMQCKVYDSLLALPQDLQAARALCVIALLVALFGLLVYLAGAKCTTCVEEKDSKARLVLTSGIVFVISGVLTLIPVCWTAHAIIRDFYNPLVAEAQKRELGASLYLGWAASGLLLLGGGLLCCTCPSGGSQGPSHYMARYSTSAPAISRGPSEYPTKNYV
Experimental: as §1

MC38/CLDN6 = assay: xCELLigence mechanism assay with KLH/CD137 bispecific antibody; assay type: cell-based, mouse; conditions: 1 nM
Experimental: The mechanism of T-cell dependent growth inhibition mediated by the anti-CLDN6/Dual-Fab tri-specific antibodies was assessed by cell proliferation assay using an xCELLigence RTCA MP instrument (ACEA Biosciences).
Mouse colon cancer cell line MC38/CLDN6 expressing human CLDN6 was used as target cells. Spleens were collected aseptically from hCD3 transgenic mice and hCD3/hCD137 knock-in mice. The spleen was ground in RPMI-1640 medium containing 10% FBS, passed through a 70-μm cell strainer, and then centrifuged (at 1200 rpm for 10 minutes at room temperature) to isolate spleen cells. The isolated spleen cells were hemolyzed, then T cells alone were isolated using CD3 MicroBeads (Miltenyi Biotec), and used as effector cells.
The background was measured by adding the culture medium to an E-Plate 96 plate (Roche Diagnostics) at 50 μL/well, and then 5×10^3 target cells were plated at 50 μL/well. After culturing overnight, 1 nM (final concentration) of CS4135 together with the KLH/CD137 bispecific antibody at a concentration selected from 100 nM or 500 nM (final concentration) were added at 25 μL/well, respectively. […] Cell growth was monitored every 10 min using xCELLigence over 48 hours during the incubation of the plates. The rate of cell growth inhibition (CGI: %) was determined from the cell index value according to the following formula: […]

NIH:OVCAR-3 = assay: OVCAR3 xenograft in huNOG mice, combination with irinotecan hydrochloride; assay type: in vivo; conditions: 60 days after transplantation; CS4135 0.1 mg/kg, irinotecan hydrochloride 25 mg/kg, iv days 39, 46
Experimental: In this test, NOG(huNOG) mice (described in the aforementioned Example 13) transplanted with ovarian cancer cell line NIH:OVCAR-3 (OVCAR3, ATCC) and human CD34-positive cells were used. The OVCAR3 cell line was transplanted subcutaneously to the right flank of the mice, and the mice were divided into groups 39 days after transplantation. Individuals whose tumor volume reached 160 to 263 mm^3 were divided into groups. Vehicle 1 and CS4135 were administered into the mouse tail vein 39 and 46 days after transplantation. PBS containing 0.05% Tween-20 was used as Vehicle 1. Vehicle 2 and irinotecan hydrochloride (Sawai Pharmaceutical Co., Ltd.) were administered into the mouse tail vein 39 and 46 days after transplantation. Physiological saline was used as Vehicle 2.
Tumor volume was measured 39, 42, 46, 49, 53, 57, and 60 days after transplantation, and the average tumor volume is indicated for each group. The tumor volume was calculated by the following equation: […]
as §2

B1: PPU4135: anti-CLDN6/Dual-Fab tri-specific antibody, chains SEQ ID NOs 42, 51, 56, 69; CS4135 same antibody (protein)
chain 1: QVQLVESGGGVVQPGGSLRLSCAASGFTFSSYTMSWVRQAPGQGLEWMGTISSGGGRTYYPDSVKGRFTISRDNSKNTLYLQMNSLRDEDTAVYYCARGDYRYDGFAYWGEGTLVTVSSASTKGPSVFPLAPSSKSTSGGTAALGCLVEDYFPEPVTVSWNSGALTSGVHTFPAVLESSGLYSLSSVVTVPSSSLGTQTYICNVNHKPSNTKVDKRVEPKSCDKTHTCPPCPAPEAAGGPSVFLFPPKPKDTLMISRTPEVTCVVVDVSHEDPEVKFNWYVDGVEVHNAKTKPREEQYASTYRVVSVLTVLHQDWLNGKEYKCKVSNKALPAPIEKTISKAKGQPREPQVYTLPPSREEMTKNQVSLTCLVKGFYPSDIAVEWESNGQPENNYKTTPPVLDSDGSFFLYSKLTVDKSRWQQGNVFSCSVMHEALHNHYTQESLSLSP
chain 2: DIQMTQSPSSLSASVGDRVTITCRASYNIDSYLAWYQQKPGKAPELLIYYSTLLVDGVPDRFSGSRSGTDFTLTISSLQPEDFATYYCQHYYSIPYTFGQGTKVEIERTVAAPSVFIFPPSDEQLKSGTAKVVCLLNNFYPREAKVQWKVDNALQSGNSKESVTEQDSKDSTYSLSSTLTLSKADYEKHKVYACEVTHQGLSSPVTKSFNRGEC
chain 3: QVQLVESGGGLVQPGRSLRLSCAASGFKFSNVWFHWVRQAPGKGLEWVAQIKDYYNAYAAYYAPSVKGRFTISRDDSKNSIYLQMNSLKTEDTAVYYCHYVHYASASTLLPAEGVDAWGQGTTVTVSSASTKGPSVFPLAPSSKSTSGGTAALGCLVKDYFPEPVTVSWNSGALTSGVHTFPAVLKSSGLYSLSSVVTVPSSSLGTQTYICNVNHKPSNTKVDKRVEPKSCDKTHTCPPCPAPEAAGGPSVFLFPPKPKDTLMISRTPEVTCVVVDVSHEDPEVKFNWYVDGVEVHNAKTKPREEQYASTYRVVSVLTVLHQDWLNGKEYKCKVSNKALPAPIEKTISKAKGQPREPQVYTLPPSRKEMTKNQVSLTCLVKGFYPSDIAVEWESNGQPENNYKTTPPVLDSDGSFFLYSKLTVDKSRWQQGNVFSCSVMHEALHNHYTQKSLSLSP
chain 4: DIVMTQSPLSLPVTPGEPASISCQPSQEVVHMNRNTYLHWYQQKPGQAPRLLIYKVSNRFPGVPDRFSGSGSGTDFTLKISRVEAEDVGVYYCAQGTSHPFTFGQGTKLEIKRTVAAPSVFIFPPSDEQLKSGTAEVVCLLNNFYPREAKVQWKVDNALQSGNSEESVTEQDSKDSTYSLSSTLTLSKADYEKHKVYACEVTHQGLSSPVTKSFNRGEC
ka (cyno CLDN6 VLP): 218000 M⁻¹ s⁻¹ | kd (cyno CLDN6 VLP): 0.000821 s⁻¹ | Tumor growth inhibition: TGI (CLDN6-LLC1; 14 days after transplantation, 0.25 mg/kg iv day 8): 71% | number of CD8-positive T cells per tumor weight (CLDN6-LLC1; 14 days after tumor transplantation (Day 6 after administration), 0.25 mg/kg): significant increase | ka (human CLDN6 VLP): 217000 M⁻¹ s⁻¹ | kd (human CLDN6 VLP): 0.000794 s⁻¹ | cell growth inhibition rate (MC38/CLDN6; T cells from hCD3/hCD137 knock-in mice vs hCD3 transgenic mice, no KLH/CD137 bispecific antibody): significantly higher | cell growth inhibition rate (MC38/CLDN6; hCD3/hCD137 knock-in T cells, 500 nM KLH/CD137 bispecific antibody added): decreased to the same level as when using hCD3 transgenic mice-derived T cells | Tumor growth inhibition: TGI (NIH:OVCAR-3): −2%
